What all share (assay): enzyme inhibition kinetics
For assay [1], the target named is T1, ADAMTS5-2 (ADAMTS-5 lacking the C-terminal TS-2 domain) (human, UniProt Q9UNA0 262-874).
T1 sequence (looked up): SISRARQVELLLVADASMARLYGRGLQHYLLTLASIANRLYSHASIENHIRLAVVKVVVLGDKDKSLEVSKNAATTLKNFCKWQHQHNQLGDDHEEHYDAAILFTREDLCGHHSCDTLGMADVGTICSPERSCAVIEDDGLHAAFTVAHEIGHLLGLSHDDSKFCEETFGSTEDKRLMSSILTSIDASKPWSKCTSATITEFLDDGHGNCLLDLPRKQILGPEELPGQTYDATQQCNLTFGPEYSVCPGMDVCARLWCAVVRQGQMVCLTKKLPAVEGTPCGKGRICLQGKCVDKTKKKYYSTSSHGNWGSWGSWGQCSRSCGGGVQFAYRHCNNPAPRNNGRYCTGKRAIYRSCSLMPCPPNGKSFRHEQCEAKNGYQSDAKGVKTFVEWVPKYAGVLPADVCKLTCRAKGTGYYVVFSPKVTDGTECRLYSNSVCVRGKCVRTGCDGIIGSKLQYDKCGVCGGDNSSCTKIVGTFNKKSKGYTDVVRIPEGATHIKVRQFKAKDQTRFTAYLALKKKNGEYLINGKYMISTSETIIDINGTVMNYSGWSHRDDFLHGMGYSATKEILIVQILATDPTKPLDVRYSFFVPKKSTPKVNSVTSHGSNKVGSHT

In a further assay the target is T2, MMP-2 (UniProt P08253 110-660).
T2 sequence (looked up): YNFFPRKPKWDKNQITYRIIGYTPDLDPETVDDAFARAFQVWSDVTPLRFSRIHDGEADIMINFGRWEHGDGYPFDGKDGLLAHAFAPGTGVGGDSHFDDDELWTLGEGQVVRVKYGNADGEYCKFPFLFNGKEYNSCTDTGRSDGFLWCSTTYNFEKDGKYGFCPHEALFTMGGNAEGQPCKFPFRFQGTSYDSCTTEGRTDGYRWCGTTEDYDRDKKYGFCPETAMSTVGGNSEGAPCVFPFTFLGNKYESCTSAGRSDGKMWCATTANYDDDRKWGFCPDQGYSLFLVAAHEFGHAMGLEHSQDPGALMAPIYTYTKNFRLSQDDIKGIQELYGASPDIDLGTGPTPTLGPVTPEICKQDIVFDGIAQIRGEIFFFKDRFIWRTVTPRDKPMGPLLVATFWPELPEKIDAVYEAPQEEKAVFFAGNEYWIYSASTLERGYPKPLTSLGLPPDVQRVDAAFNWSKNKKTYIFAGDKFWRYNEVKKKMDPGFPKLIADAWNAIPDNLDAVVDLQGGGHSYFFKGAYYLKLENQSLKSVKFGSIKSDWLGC

The target of a further assay is MMP-3 catalytic domain (UniProt P08254 100-272).
The target in assay [2] is T3, Recombinant human ADAMTS-5 (adamalysin with thrombospondin motifs 5), full-length (human, UniProt Q9UNA0 262-930).
T3 sequence (looked up): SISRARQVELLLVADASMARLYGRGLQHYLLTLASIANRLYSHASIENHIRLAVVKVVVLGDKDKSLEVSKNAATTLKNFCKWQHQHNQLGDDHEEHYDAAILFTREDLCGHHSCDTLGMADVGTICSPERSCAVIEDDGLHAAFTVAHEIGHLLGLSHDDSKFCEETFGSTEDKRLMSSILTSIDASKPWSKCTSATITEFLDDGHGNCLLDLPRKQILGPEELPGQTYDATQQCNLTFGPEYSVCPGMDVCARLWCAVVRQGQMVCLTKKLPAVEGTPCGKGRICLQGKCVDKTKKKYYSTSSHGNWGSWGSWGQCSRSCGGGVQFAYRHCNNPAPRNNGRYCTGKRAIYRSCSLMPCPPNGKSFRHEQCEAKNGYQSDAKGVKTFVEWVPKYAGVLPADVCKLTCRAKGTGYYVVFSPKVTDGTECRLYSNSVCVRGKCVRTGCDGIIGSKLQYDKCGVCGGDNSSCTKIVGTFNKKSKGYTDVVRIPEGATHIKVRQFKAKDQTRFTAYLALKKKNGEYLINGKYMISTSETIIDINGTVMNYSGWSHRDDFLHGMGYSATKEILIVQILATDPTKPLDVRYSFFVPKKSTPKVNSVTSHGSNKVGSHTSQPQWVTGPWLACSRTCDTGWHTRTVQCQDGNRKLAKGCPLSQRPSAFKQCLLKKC

Assay [3] addresses T4, MMP (matrix metalloproteinase)-1 catalytic domain (UniProt P03956 100-269).
T4 sequence (looked up): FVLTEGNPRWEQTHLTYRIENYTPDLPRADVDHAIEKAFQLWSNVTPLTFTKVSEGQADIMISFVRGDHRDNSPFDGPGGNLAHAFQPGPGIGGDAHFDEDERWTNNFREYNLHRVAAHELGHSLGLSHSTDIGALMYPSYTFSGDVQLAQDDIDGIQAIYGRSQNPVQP

Assay [4] concerns the target T3, Recombinant human ADAMTS-5 (adamalysin …). The source holds these as a separate data set.

Read-outs that look alike come from different tables or passages of the source.

Here are results for three molecules from paper PMC3369482 (Biochemical Journal, 2012).

MMP-3 catalytic domain, sequence (P08254 100-272): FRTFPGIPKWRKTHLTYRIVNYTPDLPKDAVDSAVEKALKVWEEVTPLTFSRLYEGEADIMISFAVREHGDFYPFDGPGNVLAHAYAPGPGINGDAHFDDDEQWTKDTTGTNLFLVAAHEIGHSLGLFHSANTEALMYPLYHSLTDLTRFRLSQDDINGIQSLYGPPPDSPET

B1: TIMP-3(K26/27/30/76E+R163/K165Q) (natural protein, human, UniProt P35625 24-211, looked up)
chain: CTCSPSHPQDAFCNSDIVIRAKVVGEELVEEGPFGTLVYTIKQMKMYRGFTKMPHVQYIHTEASESLCGLKLEVNEYQYLLTGRVYDGKMYTGLCNFVERWDQLTLSQRKGLNYRYHLGCNCKIKSCYYLPCFVTSKNECLWTDMLSNFGYPGYQSKHYACIQQQGGYCSWYRGWAPPDKSIINATDP
On to B1, for which the Ki (as a rule, the equilibrium dissociation constant of an inhibitor or competing ligand from its target) in assay [1] stood at 1.34 ± 0.04 nM.

B2: Recombinant human TIMP-3 (tissue inhibitor of metalloproteinases 3) (natural protein, UniProt P35625 24-211, looked up)
chain: CTCSPSHPQDAFCNSDIVIRAKVVGKKLVKEGPFGTLVYTIKQMKMYRGFTKMPHVQYIHTEASESLCGLKLEVNKYQYLLTGRVYDGKMYTGLCNFVERWDQLTLSQRKGLNYRYHLGCNCKIKSCYYLPCFVTSKNECLWTDMLSNFGYPGYQSKHYACIRQKGGYCSWYRGWAPPDKSIINATDP
As for B2, the Ki in the assay with MMP-2 was found to be 0.16 ± 0.002 nM; in the assay with MMP-3 catalytic domain, 0.9 ± 0.28 nM; in assay [2], 0.56 ± 0.03 nM; in assay [3], 0.43 ± 0.12 nM.

B3: TIMP-1 (tissue inhibitor of metalloproteinases 1) (natural protein)
chain: not shown
Regarding B3, the figures for the Ki in assay [4] and in assay [2] were 522 ± 0.24 nM and 734 ± 0.16 nM, respectively.
